Where two headings read alike, the source gives them in different places.
Tests used:
Assay type in all cases: cell-based
human Kv1.1 (huKv1.1) = biological target: T1, human Kv1.1 (huKv1.1) (Homo sapiens, UniProt Q09470); test: QPatch automated patch-clamp, CHO-S cells expressing huKv1.1 (Examples 20-21)
T1 construct: expressed in transfected cells; host or cells: Freestyle CHO-S
Protocol: 1. The effect of these KnotBodies on cells expressing human Kv1.1 (huKv1.1) and Kv1.3 (huKv1.3) channels was assessed using QPatch automated patch-clamp platform (Sophion).
To generate huKv1.1 expressing cells, Freestyle CHO-S cells (Cat. no. R80007, Life Technologies, California, USA) were transfected with pINT50-Tr plasmid encoding huKv1.1 gene using the MaxCyte STX (MaxCyte) transfection system. In pINT50-Tr plasmid, huKv1.1 gene is under the control of a CMV promoter. 64 µg of the plasmid DNA were added to 400 µl of Freestyle CHO-S cells (at a density of 1 × 10^8 cells/ml) in Electroporation Buffer (GE Healthcare Life Sciences, Cat. no. EPB1) in an OC-400 processing assembly (MaxCyte). Following electroporation, the cells were transferred to a well of a 24-well plate containing 200 U/ml DNAse I (Sigma, D4263) and incubated for 20 minutes at 37° C. and 5% CO2. The cells were then transferred into a 100 ml shaker flask containing 20 ml of CD Opticho Media (Thermo Fisher Scientific, Cat.No 12681-011,) supplemented with 8 mM L-Glut (Thermo Fisher Scientific, cat. no. 25030-024). The cells were incubated for 24 hours at 37° C. and 5% CO2 (and 75% humidity and shaking at 800 rpm) prior to testing using automated patch clamp electrophysiology.
(§1) For the testing of Kv1.1 and Kv1.3, CHO-S expressing huKv1.1 (described above) or CHO cells stably expressing huKv1.3 (Charles River Lab) were analysed using the QPatch electrophysiology assay in the presence or absence of the KnotBody fusions. Internal and external physiological solutions were freshly prepared prior to the assay. The extracellular solution contained 145 mM NaCl, 4 mM KC1, 2 mM CaC12, 1 mM MgC12, 10 mM HEPES and 10 mM glucose; the pH was adjusted to 7.4 with NaOH; the osmolarity was ~ 305 mOsm/L. The intracellular solution contained: KF (120 mM), KC1 (20 mM), HEPES (10 mM) EGTA (10 mM); the pH was adjusted to 7.2 with KOH; osmolarity was ~ 300 mOsm/L.
(§2) A series of depolarising voltage (channel activating) pulses were used to monitor the channel currents upon adding control (extracellular solution) to define a control baseline of current activity. To these measured control currents four, ascending concentrations of KnotBodies (including previously described KB_A12_ShK and KB_A12_KTX described in Example 8) or parental antibody isotypes (control molecules) were applied to the external bathing solution. KnotBodies KB_A12 and KB_A07 (EETI-II fusions) were used as isotype controls for the testing. From a holding voltage of -80 mV a depolarising, activating voltage pulses of +30 were applied for 300 ms, every 10 seconds. The elicited, maximum outward current values measured during the activating step for each solution exchange period, averaged (n = 3 - 6 for each concentration applied) and plotted as concentration-response curves (see FIG. 33). From these concentration-response curves IC50 values were calculated (see Table E20).
(§3) For the testing of Kv1.1 and Kv1.3, CHO-S expressing huKv1.1 (see Example 20 and below) or CHO cells stably expressing huKv1.3 (Charles River Lab) were analysed using the QPatch electrophysiology assay in the presence or absence of the KnotBody fusions - see details in Examples 19 and 20.
In addition to the CHO-S transiently expressing huKv1.1 (described in Example 20), CHO-S cells with poly-clonal stable expression of huKv1.1 cells were also made and used in the QPatch electrophysiology assay. To generate the polyclonal stable huKv1.1 cells from the transiently expressing cells described in Example 20, after a 24 hour incubation period the selection antibiotic Puromycin (catalogue no. A1 1138-03, Life Technologies, California, USA) was added to culture media. Then, for the first 14 days puromycin was at 10 µg ml-1 media; at days 15-28 puromycin was at 20 µg ml-1 media. Cell cultures were seeded at 2.5 x 10^5 cells ml^-1 into fresh culture media and puromycin twice per week through this selection growth period. […]

huKv1.3 = biological target: T2, huKv1.3 (Homo sapiens, UniProt P22001); test: QPatch automated whole-cell patch-clamp, CHO cells stably expressing huKv1.3 (Example 8); conditions: Kv1.3 channels, IgG KnotBody, Table 11A
T2 construct: host or cells: CHO
T2 sequence (P22001 whole entry): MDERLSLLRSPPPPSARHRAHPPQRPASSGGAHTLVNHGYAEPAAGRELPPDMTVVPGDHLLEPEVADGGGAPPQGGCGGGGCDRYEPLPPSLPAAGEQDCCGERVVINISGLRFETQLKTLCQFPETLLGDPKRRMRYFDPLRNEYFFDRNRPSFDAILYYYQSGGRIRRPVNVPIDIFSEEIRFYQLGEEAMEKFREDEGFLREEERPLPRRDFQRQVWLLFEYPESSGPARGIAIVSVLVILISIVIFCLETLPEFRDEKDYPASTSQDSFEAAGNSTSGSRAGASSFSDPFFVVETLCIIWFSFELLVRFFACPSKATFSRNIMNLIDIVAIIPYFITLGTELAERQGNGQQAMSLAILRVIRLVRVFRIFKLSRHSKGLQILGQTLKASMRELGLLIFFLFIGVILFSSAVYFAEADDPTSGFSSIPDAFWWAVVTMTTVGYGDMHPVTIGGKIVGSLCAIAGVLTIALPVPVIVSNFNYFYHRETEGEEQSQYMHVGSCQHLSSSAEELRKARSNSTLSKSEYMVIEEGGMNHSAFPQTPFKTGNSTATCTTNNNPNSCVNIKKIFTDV
Protocol: Knottin Kv 1.3 and ASIC1a blockers expressed in the KnotBody format (see examples 6 and 7) were tested for their ability to inhibit the function of the ion channel targets. The effect of these KnotBodies on cells expressing the human Kv 1.3 (huKv1.3) or human ASIC1a channels was assessed using QPatch automated whole-cell patch-clamp electrophysiology (Sophion).
For the testing of Kv1.3, CHO cells stably expressing huKv1.3 (Charles River Lab) were analysed using the QPatch electrophysiology assay in the presence or absence of the KnotBody fusions or the antibody isotypes (negative) controls. Internal and external physiological solutions were freshly prepared prior to the assay. The extracellular solution contained 145 mM NaCl, 4 mM KCl, 2 mM CaCl2, 1 mM MgCl2, 10 mM HEPES and 10 mM glucose; the pH was adjusted to 7.4 with NaOH; the osmolarity was ~ 305 mOsm/L. The intracellular solution contained: KF (120 mM), KCl (20 mM), HEPES (10 mM) and EGTA (10 mM); the pH was adjusted to 7.2 with KOH; osmolarity was ~ 320 mOsm/L.
A series of depolarising voltage (channel activating) pulses were used to monitor the channel currents upon adding control (extracellular solution) to define a control baseline of current activity. To these measured control currents ascending concentrations of KnotBodies or parental antibody isotypes (control molecules) were applied to the external bathing solution (2.2 µM - 0.5 nM, diluted in the extracellular solution). KnotBodies KB_A12 and KB_A07 (EETI-II fusions) were used as isotype controls for the testing. From a holding voltage of -80 mV a depolarising, activating voltage pulses of +30 or +80 mV were applied for 300 ms, every 5 or 10 seconds. The elicited, maximum outward current values measured during the activating step for each solution exchange period were averaged (n = 3 - 8 for each concentration applied) and plotted as concentration-response curves. KB_A07_ShK, KB_A12_ShK and KB_A07_Kaliotoxin (KTX) fusion proteins all inhibited the huKv1.3 currents in a concentration dependent manner with IC50S of approximately 20 nM, 40 nM and 900 nM respectively.

human Kv1.3 (huKv1.3) = biological target: T3, human Kv1.3 (huKv1.3) (Homo sapiens, UniProt P22001); test: QPatch automated patch-clamp, CHO cells stably expressing human Kv1.3 (Examples 19-21)
T3 construct: host or cells: CHO
T3 sequence (P22001 whole entry): as above
Protocol: The effect of these KnotBodies on cells expressing human Kv1.3 (huKv1.3) channel was assessed using the QPatch automated patch-clamp platform (Sophion, Ballerup, Denmark). For the testing of Kv1.3 ion channel currents, CHO cells stably expressing human Kv1.3 (GenBank accession number NM_002232.2; cell line catalogue number CT6133, Charles River Discovery, Cleveland, USA) were subjected to a QPatch electrophysiology assay in the presence or absence of the KnotBody fusions or the antibody isotypes (negative controls). Internal and external physiological solutions were freshly prepared prior to the assay. The extracellular solution contained 145 mM NaCl, 4 mM KC1, 2 mM CaC12, 1 mM MgC12, 10 mM HEPES and 10 mM glucose; the pH was adjusted to 7.4 with NaOH; the osmolarity was ~ 305 mOsm/L. The intracellular solution contained: KF (120 mM), KC1 (20 mM), HEPES (10 mM) EGTA (10 mM); the pH was adjusted to 7.2 with KOH; osmolarity was ~ 300 mOsm/L.
as §2, with “(including” for “(including previously described”, “KB_A12_KTX as previously” for “KB_A12_KTX”, “+30 mV” for “+30”, “32).” for “33).”, “calculated.” for “calculated (see Table E20).”
as §1, §2, §3

[1] = four-point curves of FIG. 33, Table E20
[2] = Kv1.1 IC50 over Kv1.3 IC50, Table E20
[3] = four-point curves of FIG. 33, Table E20, read-out: Kv1.3 IC50
[4] = huKv1.3, four-point curves of FIG. 32, Table E19, read-out: IC50

T1 sequence (Q09470 whole entry): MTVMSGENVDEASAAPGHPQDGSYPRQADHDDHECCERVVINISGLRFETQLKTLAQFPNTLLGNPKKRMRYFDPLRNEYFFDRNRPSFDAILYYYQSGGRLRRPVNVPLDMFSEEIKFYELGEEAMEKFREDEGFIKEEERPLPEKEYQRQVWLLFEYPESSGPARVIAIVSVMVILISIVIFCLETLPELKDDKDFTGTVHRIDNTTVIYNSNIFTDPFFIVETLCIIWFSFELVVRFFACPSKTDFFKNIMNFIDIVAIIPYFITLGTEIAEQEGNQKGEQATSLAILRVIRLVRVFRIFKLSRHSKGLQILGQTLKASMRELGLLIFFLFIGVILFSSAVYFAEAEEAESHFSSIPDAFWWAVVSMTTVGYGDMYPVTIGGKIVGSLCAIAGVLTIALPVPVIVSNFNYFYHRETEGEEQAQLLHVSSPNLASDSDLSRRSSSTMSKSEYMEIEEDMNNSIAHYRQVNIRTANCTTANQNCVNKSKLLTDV

B1: KB_A12_KTX: kaliotoxin in VL CDR2 of KB_A12, IgG1 (antibody)
VH: EVQLVESGGGLVRPGGSLRLSCAASGFTFSSYAMSWVRQAPGKGLEWVSAISGSGGSTYYADSVKGRFTISRDNTKNSLYLQMTSLRADDTAFYYCVKDFGPGYGTGWFDYWGPGTLVTVSS
VL: QSVLTQPPSVSEAPRQRVTITCSGSSSNIGNNAVNWYQQLPGKAPKLLIYAAGRGVEINVKCSGSPQCLKPCKDAGMRFGKCMNRKCHCTPKANSGVSDRFSAAKSGTSASLAINGLRSEDEADYYCAAWDDSLNGYVFGTGTKLTVLGQP
With B1 as the molecule, how does the IC50 (human Kv1.1 (huKv1.1); [1]) read?
Its IC50 is 4800 nM.

And the IC50 (huKv1.3)?
Its IC50 is greater than 10000 nM.

What about the Fold difference (human Kv1.3 (huKv1.3); [2]) of the same molecule?
Its Fold difference is 3.

What about the IC50 (human Kv1.3 (huKv1.3); [3]) of the same molecule?
The IC50 was 1540 nM.

What about the IC50 (human Kv1.3 (huKv1.3); [4]) of the same molecule?
The IC50 was 430 nM.

B2: KB_A12_AnTx 2 M: AnTx N17A/F32T in VL CDR2 of KB_A12, IgG (antibody, V domains shown)
VH: EVQLVESGGGLVRPGGSLRLSCAASGFTFSSYAMSWVRQAPGKGLEWVSAISGSGGSTYYADSVKGRFTISRDNTKNSLYLQMTSLRADDTAFYYCVKDFGPGYGTGWFDYWGPGTLVTVSS
VL: QSVLTQPPSVSEAPRQRVTITCSGSSSNIGNNAVNWYQQLPGKAPKLLIYAAGRQKECTGPQHCTNFCRKAKCTHGKCMNRKCKCTNCKANSGVSDRFSAAKSGTSASLAINGLRSEDEADYYCAAWDDSLNGYVFGTGTKLTVLG
Which IC50 (human Kv1.1 (huKv1.1); [1]) does the source give for B2 here?
Its IC50 is 10300 nM.

And the Fold difference (human Kv1.3 (huKv1.3); [2])?
The Fold difference was 94.

And the IC50 (human Kv1.3 (huKv1.3); [3])?
The IC50 was 110 nM.

And the IC50 (human Kv1.3 (huKv1.3); [4])?
The IC50 was 85 nM.

B3: KB_A12_Odk2: OdK2 in VL CDR2 of KB_A12, IgG (antibody, V domains shown)
VH: EVQLVESGGGLVRPGGSLRLSCAASGFTFSSYAMSWVRQAPGKGLEWVSAISGSGGSTYYADSVKGRFTISRDNTKNSLYLQMTSLRADDTAFYYCVKDFGPGYGTGWFDYWGPGTLVTVSS
VL: QSVLTQPPSVSEAPRQRVTITCSGSSSNIGNNAVNWYQQLPGKAPKLLIYAAGRGVPTDVKCRGSPQCIQPCKDAGMRFGKCMNGKCHCTPKANSGVSDRFSAAKSGTSASLAINGLRSEDEADYYCAAWDDSLNGYVFGTGTKLTVLG
How did the IC50 (human Kv1.1 (huKv1.1); [1]) turn out when B3 was run?
The IC50 was 2750 nM.

And the Fold difference (human Kv1.3 (huKv1.3); [2])?
The Fold difference was 6.

What about the IC50 (human Kv1.3 (huKv1.3); [3]) of the same molecule?
The IC50 was 457 nM.

What about the IC50 (human Kv1.3 (huKv1.3); [4]) of the same molecule?
The IC50 was 222 nM.

B4: KB_A12_HsTx1 R14A (antibody, V domains shown)
VH: EVQLVESGGGLVRPGGSLRLSCAASGFTFSSYAMSWVRQAPGKGLEWVSAISGSGGSTYYADSVKGRFTISRDNTKNSLYLQMTSLRADDTAFYYCVKDFGPGYGTGWFDYWGPGTLVTVSS
VL: QSVLTQPPSVSEAPRQRVTITCSGSSSNIGNNAVNWYQQLPGKAPKLLIYAAGRASCRTPKDCADPCAKETGCPYGKCMNRKCKCNRCANSGVSDRFSAAKSGTSASLAINGLRSEDEADYYCAAWDDSLNGYVFGTGTKLTVLG
Which IC50 (human Kv1.1 (huKv1.1); Table E21) does the source give for B4 here?
The IC50 was 2990 nM.

What about the Fold difference (human Kv1.3 (huKv1.3); Kv1.1 IC50 over Kv1.3 IC50, Table E21) of the same molecule?
Its Fold difference is greater than 3500.

What about the IC50 (human Kv1.3 (huKv1.3); Table E21, read-out: Kvl.3 IC50) of the same molecule?
The IC50 was 0.9 nM.

Reference: patent US20230331827A1, “POTASSIUM CHANNEL INHIBITORS” (priority 2017, published 2023)
